From patent publication US20240034813A1 (Janssen / Centocor, published 2024)

What was measured:
[1] = target: T1, recombinant human EGFR/ErbB1/HER1 with C-terminal His tag, Cy5-labeled (human, UniProt P00533 25-645, Cy5 label (reacted with Cy5 Mono NHS Ester; sites not stated)); assay: competitive TR-FRET (Eu-amivantamab/Cy5-EGFR), EC50 ratio vs Reference Material; Ex. 3 acetate formulation, 6 months at 25 C, untreated control
T1 construct: Commercial protein; also called Cy5-EGFR; Cy5-labeled EGFR antigen; not shown: C-terminal His tag
Excerpt: (§1) In this procedure, varying concentrations of unlabeled bispecific EGFR-cMet antibody sample compete with donor fluorophore (Europium (Eu) chelate) labeled bispecific EGFR-cMet antibody for binding to an acceptor fluorophore (Cy5)-labeled EGFR antigen. Excitation of the donor fluorophore results in a transfer of energy to the bound acceptor fluorophore (FRET process). The resultant FRET is detected by emission of light at 665 nm using a microplate reader capable of measuring time-resolved fluorescence. Sample dose response curves are compared to the RM.
(§2) EGFR Binding Materials and Methods. Certified commercial EGFR, a recombinant human EGFR/ErbB1/HER1 with C-terminal His tag is reacted with certified commercial Cy5 Mono NHS Ester to produce Cy5-labeled EGFR. Validated bispecific EGFR-cMet antibody is reacted with certified commercial Europium (Eu) chelate to produce Eu-labeled bispecific EGFR-cMet antibody. […] Fluorescence is then measured by spectrophotometry at 665 nm, plotted against antibody concentration and analyzed by a four-parameter logistic model. The antibody concentration required to obtain half of the maximum fluorescence response (EC50) is determined for RM, assay control and samples. The potencies of assay control and samples are calculated based on the ratio of the sample (or control) and RM EC50 values and reported as a percentage activity relative to the RM.

[2] = target: T2, recombinant cMet/HGFR with c-terminal His-tag, Cy5-labeled (UniProt P08581 25-932, limits assumed, Cy5 label (reacted with Cy5 Mono NHS Ester; sites not stated)); assay: competitive TR-FRET (Eu-amivantamab/Cy5-c-MET), EC50 ratio vs Reference Material; Ex. 11 drug product, 3 months at 5 C
T2 construct: Commercial protein; also called Cy5-c-MET; Cy5-labeled c-MET antigen; not shown: C-terminal His-tag
Excerpt: as §1, with “(Cy5)-labeled c-MET” for “(Cy5)-labeled EGFR”, “the Reference Material (RM).” for “the RM.”
as §2, with “c-MET Binding” for “EGFR Binding”, “commercial cMet,” for “commercial EGFR,”, “recombinant cMet/HGFR” for “recombinant human EGFR/ErbB1/HER1”, “with c-terminal His-tag” for “with C-terminal His tag”, “Cy5-labeled c-MET.” for “Cy5-labeled EGFR.”, “produce Eu labeled” for “produce Eu-labeled”

[3] = target: T2, recombinant cMet/HGFR with c-terminal …; assay: competitive TR-FRET (Eu-amivantamab/Cy5-c-MET), EC50 ratio vs Reference Material; Ex. 11 drug product, 0 months, 25 C table
Excerpt: as §1, with “(Cy5)-labeled c-MET” for “(Cy5)-labeled EGFR”, “the Reference Material (RM).” for “the RM.”
as §2, with “c-MET Binding” for “EGFR Binding”, “commercial cMet,” for “commercial EGFR,”, “recombinant cMet/HGFR” for “recombinant human EGFR/ErbB1/HER1”, “with c-terminal His-tag” for “with C-terminal His tag”, “Cy5-labeled c-MET.” for “Cy5-labeled EGFR.”, “produce Eu labeled” for “produce Eu-labeled”

[4] = target: T2, recombinant cMet/HGFR with c-terminal …; assay: competitive TR-FRET (Eu-amivantamab/Cy5-c-MET), EC50 ratio vs Reference Material; Ex. 2 Formulation 3 (acetate), T0, 40 C table
Excerpt: as §1, with “(Cy5)-labeled c-MET” for “(Cy5)-labeled EGFR”, “the Reference Material (RM).” for “the RM.”
as §2, with “c-MET Binding” for “EGFR Binding”, “commercial cMet,” for “commercial EGFR,”, “recombinant cMet/HGFR” for “recombinant human EGFR/ErbB1/HER1”, “with c-terminal His-tag” for “with C-terminal His tag”, “Cy5-labeled c-MET.” for “Cy5-labeled EGFR.”, “produce Eu labeled” for “produce Eu-labeled”

[5] = target: T1, recombinant human EGFR/ErbB1/HER1 with …; assay: competitive TR-FRET (Eu-amivantamab/Cy5-EGFR), EC50 ratio vs Reference Material; Ex. 12 drug product with rHuPH20, 6 months at 5 C
Excerpt: as §1, §2

[6] = target: T2, recombinant cMet/HGFR with c-terminal …; assay: competitive TR-FRET (Eu-amivantamab/Cy5-c-MET), EC50 ratio vs Reference Material; Ex. 2 Formulation 3 (acetate), 3 months at 40 C
Excerpt: as §1, with “(Cy5)-labeled c-MET” for “(Cy5)-labeled EGFR”, “the Reference Material (RM).” for “the RM.”
as §2, with “c-MET Binding” for “EGFR Binding”, “commercial cMet,” for “commercial EGFR,”, “recombinant cMet/HGFR” for “recombinant human EGFR/ErbB1/HER1”, “with c-terminal His-tag” for “with C-terminal His tag”, “Cy5-labeled c-MET.” for “Cy5-labeled EGFR.”, “produce Eu labeled” for “produce Eu-labeled”

[7] = target: T1, recombinant human EGFR/ErbB1/HER1 with …; assay: competitive TR-FRET (Eu-amivantamab/Cy5-EGFR), EC50 ratio vs Reference Material; Ex. 11 drug product, 9 months at 5 C
Excerpt: as §1, §2

[8] = target: T2, recombinant cMet/HGFR with c-terminal …; assay: competitive TR-FRET (Eu-amivantamab/Cy5-c-MET), EC50 ratio vs Reference Material; Ex. 12 drug product with rHuPH20, 3 months at 5 C
Excerpt: as §1, with “(Cy5)-labeled c-MET” for “(Cy5)-labeled EGFR”, “the Reference Material (RM).” for “the RM.”
as §2, with “c-MET Binding” for “EGFR Binding”, “commercial cMet,” for “commercial EGFR,”, “recombinant cMet/HGFR” for “recombinant human EGFR/ErbB1/HER1”, “with c-terminal His-tag” for “with C-terminal His tag”, “Cy5-labeled c-MET.” for “Cy5-labeled EGFR.”, “produce Eu labeled” for “produce Eu-labeled”

[9] = target: T1, recombinant human EGFR/ErbB1/HER1 with …; assay: competitive TR-FRET (Eu-amivantamab/Cy5-EGFR), EC50 ratio vs Reference Material; Ex. 2 Formulation 2 (50 mM histidine), 3 months at 5 C
Excerpt: as §1, §2

B1: amivantamab (bispecific antibody, human IgG1, kappa)
heavy 1: not shown
light 1: not shown
heavy 2: not shown
light 2: DIQMTQSPSSVSASVGDRVTITCRASQGISNWLAWFQHKPGKAPKLLIYAASSLLSGVPSRFSGSGSGTDFTLTISSLQPEDFATYYCQQANSFPITFGQGTRLEIKRTVAAPSVFIFPPSDEQLKSGTASVVCLLNNFYPREAKVQWKVDNALQSGNSQESVTEQDSKDSTYSLSSTLTLSKADYEKHKVYACEVTHQGLSSPVTKSFNRGEC
notes: The samples tested were high concentration (160 mg/mL) formulations, fresh or stored or stressed; also called JNJ-61186372; bispecific EGFR-cMet antibody
EGFR Binding % activity relative to RM [1]: 83%
cMET Binding activity relative to Reference Material (%) [2]: 97%
cMET Binding activity relative to Reference Material (%) [3]: 85%
cMET Binding % activity relative to RM [4]: 94%
EGFR Binding activity relative to Reference Material (%) [5]: 89%
cMET Binding % activity relative to RM [6]: 85%
EGFR Binding activity relative to Reference Material (%) [7]: 90%
cMET Binding activity relative to Reference Material (%) [8]: 97%
EGFR Binding % activity relative to RM [9]: 96%
